Data as given in article PMC12753827 (Nature Communications, 2025).

Target: the molecule itself
Assay: SEC

B1: CeLGR-ΔC (C. elegans leucine-rich-repeat-containing GPCR truncated after helix 8 at residue 712) (receptor)
chain: QNALSLAQTKHSCMALKAEDGEGCTCKQTKRYGQPECCCMGLIVSQLPTNLTADVGYLYLHNTSISVITPNFFDKFPSIRELEIDNSAHLEHIDGSSLSVLSKLRKLSVVKCPNLREISGKLLVNNTRIQNVILKNNGLATMPSLRMTDAHHVLLDRIDLSGNKIKFISDSKVRNVKARTVVLSENKLIEISGYAFTESQFLKLKLNNNPDLRSLSVDAFKNMAGLQTLDLSHTSIDTLPINGLKKLKTLILNDVPTLKSLPSVLSFTDLETAHFTYPHHCCLFKYVDDVTMNDNGKYQRNAKEIHKRICDKREQQKVARRRKRETSGIDFLDMLLKEWTDNSTYTGPDDADDDELPPFVEIGAEPCQSIGEEVQKYYSNITCYPQPDALNPCENIVGYPFLRIAVWVVCLAAIVGNIIVWALLGIVYEKRMRMHYLYMINMSVADMVTGIYLAVLAIADAKMSDEYYRHAVWWQTGWGCRAAGFLAVFASELGIISMFLIAFEMSYNTRQSFRGRRLSPKVGVLLMIGGWLFAIIMAILPWFDVSSYSESSVCLPLRAATIFDKSYLIFGLSFNFLAFAAMALSYGFIVKMLKENETREEDRALITKMTVLVVTDLICWFPTLFFGFTATIGFPLLSLSSAKFVLVFFFPINAFANPFLYVFFTEVIQHRVRSKTLPVIRR
B1 was tested, and the “stoichiometry N” value was 2.
